Laboratory results as given in patent US20170101476A1 (Novartis, published 2017).
Like-named read-outs stand apart in the source and are kept apart here.

T1: Human CXCR2 (human, UniProt P25025 1-360)
T1 sequence: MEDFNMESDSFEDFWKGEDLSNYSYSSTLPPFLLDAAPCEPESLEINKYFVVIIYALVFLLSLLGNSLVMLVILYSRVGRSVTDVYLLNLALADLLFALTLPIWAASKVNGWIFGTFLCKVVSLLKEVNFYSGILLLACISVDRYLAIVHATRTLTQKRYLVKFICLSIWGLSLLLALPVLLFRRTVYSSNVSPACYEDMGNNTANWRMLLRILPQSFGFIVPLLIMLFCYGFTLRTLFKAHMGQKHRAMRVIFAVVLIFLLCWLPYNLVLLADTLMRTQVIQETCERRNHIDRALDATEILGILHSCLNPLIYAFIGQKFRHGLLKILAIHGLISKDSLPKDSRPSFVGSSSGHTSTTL

T2: Cynomolgus CXCR2 (cynomolgus, UniProt Q28519 3-353 (rhesus entry))
T2 chain: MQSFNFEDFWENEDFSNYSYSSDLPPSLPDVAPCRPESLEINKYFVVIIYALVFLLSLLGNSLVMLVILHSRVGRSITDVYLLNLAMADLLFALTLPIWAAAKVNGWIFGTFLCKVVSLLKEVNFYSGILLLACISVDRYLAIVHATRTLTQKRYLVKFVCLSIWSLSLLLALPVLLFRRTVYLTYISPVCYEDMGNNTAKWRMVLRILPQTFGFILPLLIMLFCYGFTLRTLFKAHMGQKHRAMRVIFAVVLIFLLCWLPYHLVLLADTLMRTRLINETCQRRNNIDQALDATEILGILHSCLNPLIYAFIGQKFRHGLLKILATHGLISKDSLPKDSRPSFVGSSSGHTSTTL

B1: 163D02 (VHH, not shown: small tags and cut ends)
VHH: EVQLVESGGGLVQAGGSLRLSCAASGRTFSDYAMGWFRQAPGKEREFVAAITWNGGRVFYTASVKGRFTISRDNAKNTMYLQMNSLKPEDTAVYYCAADKDRRTDYLGHPVAYWGQGTQVTVSS
B2: 163E03 (VHH, not shown: small tags and cut ends)
VHH: EVQLVESGGGLVQPGGSLRLSCVASGRIFSSNAMGWFRQAPGKEREFVAAITWRSGGSAYYADSAKGRFTISRDNAKNTVYLQMNSLKPEDTAVYYCAAGGSSWLSFPPDYWGQGTQVTVSS
B3: 2B2 (VHH, not shown: small tags and cut ends)
VHH: EVQLVESGGELVQPGGSLRLSCAASGSILTINAMGWYRQAPGKQRELVVRRTRGGSTTYQDSVKGRFTISADIAKKTMYLQMNSLKPEDTAVYYCMLDDRGGVYWGQGTQVTVSS
B4: CXCR20020 (bispecific antibody, not shown: small tags and cut ends)
chain: EVQLVESGGGLVQAGESLRLSCAASGSTFDFKVMGWYRQPPGKQREGVAAIRLSGNMHYAESVKGRFTISKANAKNTVYLQMNSLRPEDTAVYYCKVNIRGQDYWGQGTQVTVSSGGGGSGGGGSGGGGSGGGGSGGGGSGGGGSGGGGSEVQLVESGGGLVQAGGSLRLSCAASGRTFSDYAMGWFRQAPGKEREFVAAITWNGGRVFYTASVKGRFTISRDNAKNTMYLQMNSLKPEDTAVYYCAADKDRRTDYLGHPVAYWGQGTQVTVSS
B5: 097A09 (VHH, not shown: small tags and cut ends)
VHH: EVQLVESGGGLVQPGGSLRLSCVASGSIVRINTMGWYRQTPGKQRELVADITSGGNINYIDAVKGRFTISRDNTKNTVYLQMNSLKPEDTAVYYCNAEIVVLVGVWTQRARTGNYWGQGTQVTVSS
B6: 127D01 (VHH, not shown: small tags and cut ends)
VHH: EVQLVESGGGLVQAGESLRLSCAASGSTFDFKVMGWYRQPPGKQREGVAAIRLSGNMHYAESVKGRFTISKANAKNTVYLQMNSLRPEDTAVYYCKVNIRGQDYWGQGTQVTVSS
B7: 54B12 (VHH, not shown: small tags and cut ends)
VHH: EVQLVESGGGLVQAGGSLTLSCAVSGSTFRINTMGWYRRAPGKQRELVAARDRGGYINYVDSVKGRFTVSRDNAKPTMYLQMNSLKPEDTAVYYCHAGTQDRTGRNFDRWGQGTQVTVSS

How the values were obtained:
Test in all cases: cell-based or functional assay
[1] = molecular target: T1, Human CXCR2
[2] = molecular target: T2, Cynomolgus CXCR2
[3] = molecular target: T1, Human CXCR2; remark: listed apart in the source
[4] = molecular target: T1, Human CXCR2; remark: listed apart in the source
[5] = molecular target: T2, Cynomolgus CXCR2
[6] = molecular target: T1, Human CXCR2; remark: listed apart in the source
[7] = molecular target: T1, Human CXCR2; remark: listed apart in the source
[8] = molecular target: T2, Cynomolgus CXCR2

Binder | FLIPR IC50, GRO-α induced intracellular calcium release [1] [nM] | [35S]GTPγS % inhibition max, GRO-α [1] [%] | [35S]GTPγS accumulation IC50, GRO-α [1] [nM] | FLIPR IC50, GRO-α induced intracellular calcium release [2] [nM] | HumanWBSC IC50 (rhGROα) [3] [nM] | Human Chemotaxis IC50 (GROα) [3] [nM] | FLIPR IC50, GRO-α induced intracellular calcium release [4] [nM] | FLIPR IC50, GRO-α induced intracellular calcium release [5] [nM] | [35S]GTPγS % inhibition of max, ENA-78 [6] [%] | [35S]GTPγS % inhibition of max, GRO-α [6] [%] | [35S]GTPγS % inhibition of max, IL-8 [6] [%] | [35S]GTPγS accumulation IC50, ENA-78 [6] [nM] | [35S]GTPγS accumulation IC50, GRO-α [6] [nM] | [35S]GTPγS accumulation IC50, IL-8 [6] [nM] | Human Chemotaxis IC50 (vs rhGROα) [7] [nM] | Human WBSC IC50 (vs rhGROα) [7] [nM] | Cynomologus WBSC IC50 (vs rhGROα) [8] [nM]
B1 | 1.91 | 100 | 53.2 | 37.2 | 6.6 |  |  |  |  |  |  |  |  |  |  |  | 
B2 | 44.3 | 100 | 64.7 | 158 | 9.4 | 1.3 |  |  |  |  |  |  |  |  |  |  | 
B3 | 441 | 71.3 | 103 | 3850 | 29.5 | 50 |  |  |  |  |  |  |  |  |  |  | 
B4 |  |  |  |  |  |  | 6.98 | 1.64 | 100 | 100 | 100 | 0.707 | 0.634 | 0.619 | 0.145 | 0.17 | 0.12
B5 | 39.9 | 100 | 50.3 | 640 | 11.6 | 4.8 |  |  |  |  |  |  |  |  |  |  | 
B6 | 21.9 | 66 | 12.5 | 753 | 4.9 | 3.9 |  |  |  |  |  |  |  |  |  |  | 
B7 | 153 | 71.8 | 15.4 | 4080 | 19.7 |  |  |  |  |  |  |  |  |  |  |  | 
